Data on four substances can be found in patent US20200289663A1.

The target in experiment [1] is human recombinant protein HER2-ECD with his-tag (human) (UniProt P04626). Put plainly: ELISA on coated HER2-ECD. Background: In an ELISA, binding on a coated surface is turned into a signal by an enzyme label.
The target is the same in experiment [2]. Put plainly: ELISA on coated HER2-ECD, average of three independent assays.

RC48-VC-MMAF, sequence (VH): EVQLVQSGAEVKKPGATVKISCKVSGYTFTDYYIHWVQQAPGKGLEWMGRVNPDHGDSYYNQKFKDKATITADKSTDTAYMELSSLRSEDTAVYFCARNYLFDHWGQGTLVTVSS
RC48-VC-MMAF, sequence (VL): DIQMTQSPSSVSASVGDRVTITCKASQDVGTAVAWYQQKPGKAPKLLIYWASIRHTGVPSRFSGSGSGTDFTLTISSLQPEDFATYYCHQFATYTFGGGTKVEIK
RC48-mc-vc-pAB-MMAE, sequence (VH): as the sequence (VH) above
RC48-mc-vc-pAB-MMAE, sequence (VL): as the sequence (VL) above
humanized anti-HER2 monoclonal antibody RC48, sequence (VH): as the sequence (VH) above
humanized anti-HER2 monoclonal antibody RC48, sequence (VL): as the sequence (VL) above

On to RC48-VC-MMAF, for which, in experiment [1], the Binding affinity is 3.35 ng/mL and the Mole equivalent stood at 13.5.

In the case of RC48-mc-vc-pAB-MMAE, in experiment [1], the Binding affinity worked out at 2.24 ng/mL and the Mole equivalent was 15.2.

Turning to “human-mouse chimeric anti-HER2 antibody cRC48”, in experiment [2], the Kd (in general, the equilibrium constant for the complex coming apart) was 0.077 nM.

On to “humanized anti-HER2 monoclonal antibody RC48”, for which, in experiment [2], the dissociation constant (Kd) is 0.044 nM.
